Laboratory results reported in patent US20200392225A1 (Novartis, published 2020).

Columns and labels:
human NPR1-ANP complex = biological target: T1, human NPR1-ANP complex (human, UniProt P01160 124-151, limits assumed); assay: ELISA, IgG titrated on the antigen with 250 fold molar excess of ANP [cont.]
T1 construct: Receptor antigen measured in the presence of ANP; also called hNPR1 + ANP; hNPR1-ANP-complex
T1 sequence: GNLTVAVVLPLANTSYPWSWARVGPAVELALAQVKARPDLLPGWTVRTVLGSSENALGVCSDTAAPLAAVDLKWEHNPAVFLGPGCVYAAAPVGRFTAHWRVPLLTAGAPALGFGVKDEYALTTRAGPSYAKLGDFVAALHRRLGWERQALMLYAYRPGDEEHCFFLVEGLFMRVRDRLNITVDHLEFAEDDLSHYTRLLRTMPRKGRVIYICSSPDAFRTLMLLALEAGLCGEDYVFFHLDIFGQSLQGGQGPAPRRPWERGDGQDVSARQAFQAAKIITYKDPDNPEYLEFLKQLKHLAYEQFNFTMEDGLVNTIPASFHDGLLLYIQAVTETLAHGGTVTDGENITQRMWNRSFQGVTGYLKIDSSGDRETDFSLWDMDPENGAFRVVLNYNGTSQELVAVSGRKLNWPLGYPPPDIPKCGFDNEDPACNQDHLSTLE
T1 sequence (peptide): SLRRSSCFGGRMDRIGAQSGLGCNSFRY

rat NPR1-ANP complex = biological target: T2, rat NPR1-ANP complex (rat); assay: as above
T2 construct: Rat receptor antigen measured in the presence of ANP; also called rNPR1 + ANP; rNPR1-ANP-complex

[1] = biological target: T3, constitutively active human NPR1 mutant (W74R), recombinant antigen (human, UniProt P16066 33-473); assay: ELISA, IgG titrated on the antigen without ANP
T3 construct: also called W74R hNPR1
T3 sequence: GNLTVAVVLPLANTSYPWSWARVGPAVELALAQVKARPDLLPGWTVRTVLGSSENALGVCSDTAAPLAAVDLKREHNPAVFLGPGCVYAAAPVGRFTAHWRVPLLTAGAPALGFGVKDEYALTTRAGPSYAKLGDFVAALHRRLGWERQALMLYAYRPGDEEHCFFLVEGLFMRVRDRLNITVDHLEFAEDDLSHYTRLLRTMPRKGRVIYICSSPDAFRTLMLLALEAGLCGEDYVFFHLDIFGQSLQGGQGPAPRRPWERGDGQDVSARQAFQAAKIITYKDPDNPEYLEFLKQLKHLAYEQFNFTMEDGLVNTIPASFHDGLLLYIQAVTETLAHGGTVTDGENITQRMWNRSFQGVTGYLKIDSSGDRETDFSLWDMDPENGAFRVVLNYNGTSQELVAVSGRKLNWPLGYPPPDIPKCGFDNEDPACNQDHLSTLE

B1: XX08 (antibody, human IgG1, kappa, L234A L235A, V domains shown)
VH: EVQLLESGGGLVQPGGSLRLSCAASGFTFNTHYIHWVRQAPGKGLEWVSSIGGQGGMTLYADSVKGRFTISRDNSKNTLYLQMNSLRAEDTAVYYCARERGYVYYHMFDPWGQGTLVTVSS
VL: DIVLTQSPATLSLSPGERATLSCRASQSITRNYLAWYQQKPGQAPRLLIYGASSRATGIPARFSGSGSGTDFTLTISSLEPEDFAVYYCQQHSMYPRTFGQGTKVEIKR
notes: the panel axis reads IgG conc; [nM]; the list MOLECULES holds only the FabCys format; also called XX08 IgG; XX08_LALA
For B1, which “EC50 (read off the curve)” value (human NPR1-ANP complex) is on record?
The value was ~0.5 nM.

B2: XX07 IgG (antibody, V domains shown)
VH: QVQLLESGGGLVQPGGSLRLSCAASGFTFSSYWMNWVRQAPGKGLEWVSAISSDGSYTYYADSVKGRFTISRDNSKNTLYLQMNSLRAEDTAVYYCARDRYSMIYSYGAGAFDYWGQGTLVTVSS
VL: DIQMTQSPSSLSASVGDRVTITCRASQGISSYLAWYQQKPGKAPKLLIYTASTLQSGVPSRFSGSGSGTDFTLTISSLQPEDFATYYCQQIWTVPRTFGQGTKVEIKR
notes: also called XX07_LALA
How did the “EC50 (read off the curve)” value (rat NPR1-ANP complex) turn out when B2 was run?
Its value is ~0.2 nM.

B3: YY02 IgG (YY02_LALA) (antibody, V domains shown)
VH: EVQLVESGGGLVKPGGSLRLSCAASGFTFSSYSMNWVRQAPGKGLEWVSSISSSSSYIYYADSVKGRFTISRDNAKNSLYLQMNSLRAEDTAVYYCARSGYRGVYGFDYWGQGTLVTVSS
VL: DIQMTQSPSSVSASVGDRVTITCRASQGISSWLAWYQQKPGKAPKLLIYAASSLQSGVPSRFSGSGSGTDFTLTISSLQPEDFATYYCQQYYHSPLTFGQGTKVEIKR
Which “EC50 (read off the curve)” value [1] does the source give for B3 here?
Its value is ~2 nM.
